How the values were obtained:
[1] = biological target: NrS-1 polymerase C-terminal region (residues 301-718) (phage NrS-1); assay: crystal structure; A-form NrS-1 CTR crystals, space group P212121, grown at 16°C in 2.8 M sodium acetate trihydrate pH 7.0; six monomers per asymmetric unit
[2] = biological target: NrS-1 polymerase C-terminal region (residues 301-718) (phage NrS-1); assay: crystal structure; B-form NrS-1 CTR crystals, space group P213, grown at 16°C in 1.6 M NaH2PO4/0.4 M K2HPO4, 0.1 M phosphate-citrate pH 4.2; two monomers per asymmetric unit, hexamer by symmetry operation; 2.4 Å
[3] = biological target: full-length NrS-1 polymerase K525A mutant (phage NrS-1); assay: SEC; Superose 6 Increase 10/300 GL; 20 mM Tris pH 8.0, 2 mM DTT with 500 mM NaCl (high salt) or 200 mM NaCl (low salt); monomer at 15.83 ml, hexamer at 13.5 ml
[4] = biological target: full-length NrS-1 polymerase (wild type) (phage NrS-1); assay: as above
[5] = biological target: full-length NrS-1 polymerase (wild type) (phage NrS-1); assay: negative-stain electron microscopy; protein from the first peak of the size-exclusion column, diluted to 40 μg/ml in low-salt buffer, stained with 0.75% uranyl formate; 2D class averages and 3D map (RELION)

“NrS-1 polymerase C-terminal region (residues 301-718) (domain or fragment)” was tested, and the stoichiometry N [1] was 6 and the stoichiometry N [2] was 6.
“full-length NrS-1 polymerase K525A mutant (enzyme)” showed a stoichiometry N [3] of 6.
“full-length NrS-1 polymerase (wild type) (enzyme)” showed a stoichiometry N [4] of 6 and a stoichiometry N [5] of 6.
